This is an account of results in patent US20180298070A1, “PEPTIDE COMPOUND” (Takeda Pharmaceutical Company Limited, published 2018).

T1: human GIPR (human), P48546
T1 chain: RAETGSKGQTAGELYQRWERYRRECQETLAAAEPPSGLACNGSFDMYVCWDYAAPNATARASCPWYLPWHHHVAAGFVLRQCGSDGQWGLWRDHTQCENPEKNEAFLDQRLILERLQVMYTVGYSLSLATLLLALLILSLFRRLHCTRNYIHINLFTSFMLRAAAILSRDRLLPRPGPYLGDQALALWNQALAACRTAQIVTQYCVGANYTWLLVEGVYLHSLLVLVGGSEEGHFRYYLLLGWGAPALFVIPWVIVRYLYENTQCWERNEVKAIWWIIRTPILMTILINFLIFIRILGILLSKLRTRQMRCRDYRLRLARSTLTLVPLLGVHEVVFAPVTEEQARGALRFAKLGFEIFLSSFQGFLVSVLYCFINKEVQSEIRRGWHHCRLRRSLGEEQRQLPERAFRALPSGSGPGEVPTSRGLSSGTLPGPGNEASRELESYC

T2: human GLP-1R (human), P43220
T2 chain: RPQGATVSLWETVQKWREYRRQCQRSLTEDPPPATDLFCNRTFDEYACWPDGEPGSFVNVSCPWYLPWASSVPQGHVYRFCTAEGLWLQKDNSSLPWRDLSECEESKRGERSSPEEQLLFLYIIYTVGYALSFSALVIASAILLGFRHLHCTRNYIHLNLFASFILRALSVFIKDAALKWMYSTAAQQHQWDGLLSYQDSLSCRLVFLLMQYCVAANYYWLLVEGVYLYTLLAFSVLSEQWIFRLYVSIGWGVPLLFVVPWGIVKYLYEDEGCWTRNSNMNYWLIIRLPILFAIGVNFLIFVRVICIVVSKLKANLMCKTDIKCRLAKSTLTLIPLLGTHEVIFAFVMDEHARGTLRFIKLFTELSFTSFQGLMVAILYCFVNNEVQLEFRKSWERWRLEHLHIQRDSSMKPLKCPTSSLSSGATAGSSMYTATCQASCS

Non-standard residues stand in square brackets, D forms with d. No end group written: not given here. NMeY = CN[C@@H](Cc1ccc(O)cc1)C(=O)O; αMeF = C[C@](N)(Cc1ccccc1)C(=O)O; dIva = CC[C@@](C)(N)C(=O)O; Iva = CC[C@](C)(N)C(=O)O; Aib = CC(C)(N)C(=O)O

For one experiment, the target named is T1, human GIPR (human), P48546.
Ac-Y[Aib]EGTFISDYSIALDR[Aib]HQ[Aib]NFVNW[Iva]LAQRPSSGAPPPSR (ends and bridges not checked) [Compound 156] came in with an Agonist activity (EC50, M) of 4.8e-12 M.
Still for that read-out and setting: the result for [NMeY][Aib]EGTFISDYSIALDRIHQQD[αMeF]VNWLLAQRPSSGAPPPSR (not fully specified (N-terminus, C-terminus); ends and bridges not checked) [Compound 141] reads 1.9e-12 M; that for Me-Y[Aib]EGTFISDYSIALDRIAQQSFVNWLLAQRPSSGAPPPS (not fully specified (residue 1, C-terminus); ends and bridges not checked) [Compound 129], 1.7e-12 M.
The same measure, in the same setting: the value for [NMeY][Aib]EGTFISDYSI[dIva]LDRIHQQDFVNWLLAQRPSSGAPPPSR (not fully specified (N-terminus, C-terminus); ends and bridges not checked) [Compound 144] was 2.2e-12 M; that for Me-Y[Aib]EGTFISDYSI[dIva]LDRIAQQDFVNWLLAQRPSSGAPPPSR (not fully specified (residue 1, C-terminus); ends and bridges not checked) [Compound 131] was 1.9e-12 M.
Me-Y[Aib]EGTFISDYSI[dIva]LDRIHQ[Aib]NFVNW[Iva]LAQRPSSGAPPPSR (not fully specified (residue 1, C-terminus); ends and bridges not checked) [Compound 147] showed an Agonist activity (EC50, M) of 1.5e-12 M.
For the molecule Me-Y[Aib]EGTFISDYSIALDRIAQ[Aib]D[αMeF]VNWLLAQRPSSGAPPPSR (not fully specified (residue 1, C-terminus); ends and bridges not checked) [Compound 135], the Agonist activity (EC50, M) came to 1.8e-12 M.
As for Ac-Y[Aib]EGTFISDYSIALDRIAQ[Aib]S[αMeF]VNW[Iva]LAQRPSSGAPPPSR (ends and bridges not checked) [Compound 155], the Agonist activity (EC50, M) is 1.7e-12 M.
Regarding [NMeY][Aib]EGTFISDYSI[dIva]LDRIAQQSFVNWLLAQRPSSGAPPPSR (not fully specified (N-terminus, C-terminus); ends and bridges not checked) [Compound 138], the Agonist activity (EC50, M) was found to be 2.2e-12 M.
On the same count and under the same terms, the value for [NMeY][Aib]EGTFISDYSIALDRIHQ[Aib]NFVNWLLAQRPSSGAPPPSR (not fully specified (N-terminus, C-terminus); ends and bridges not checked) [Compound 142] was 2.3e-12 M; that for Me-Y[Aib]EGTFISDYSIALDRIAQQNFVNW[Iva]LAQRPSSGAPPPSR (not fully specified (residue 1, C-terminus); ends and bridges not checked) [Compound 133] was 1.7e-12 M.

The target in a further experiment is T2, human GLP-1R (human), P43220.
On to Ac-Y[Aib]EGTFISDYSIALDR[Aib]HQ[Aib]NFVNW[Iva]LAQRPSSGAPPPSR (ends and bridges not checked) [Compound 156], for which the Agonist activity (EC50, M) was > 1e-06 M.
The same measure, in the same setting: the result for [NMeY][Aib]EGTFISDYSIALDRIHQQD[αMeF]VNWLLAQRPSSGAPPPSR (not fully specified (N-terminus, C-terminus); ends and bridges not checked) [Compound 141] reads > 1e-06 M; that for Me-Y[Aib]EGTFISDYSIALDRIAQQSFVNWLLAQRPSSGAPPPS (not fully specified (residue 1, C-terminus); ends and bridges not checked) [Compound 129], > 1e-06 M.
Same read-out and setting: the result for [NMeY][Aib]EGTFISDYSI[dIva]LDRIHQQDFVNWLLAQRPSSGAPPPSR (not fully specified (N-terminus, C-terminus); ends and bridges not checked) [Compound 144] reads > 1e-06 M; that for Me-Y[Aib]EGTFISDYSI[dIva]LDRIAQQDFVNWLLAQRPSSGAPPPSR (not fully specified (residue 1, C-terminus); ends and bridges not checked) [Compound 131], > 1e-06 M; that for Me-Y[Aib]EGTFISDYSI[dIva]LDRIHQ[Aib]NFVNW[Iva]LAQRPSSGAPPPSR (not fully specified (residue 1, C-terminus); ends and bridges not checked) [Compound 147], > 1e-06 M.
Still for that read-out and setting: the result for Me-Y[Aib]EGTFISDYSIALDRIAQ[Aib]D[αMeF]VNWLLAQRPSSGAPPPSR (not fully specified (residue 1, C-terminus); ends and bridges not checked) [Compound 135] reads > 1e-06 M; that for Ac-Y[Aib]EGTFISDYSIALDRIAQ[Aib]S[αMeF]VNW[Iva]LAQRPSSGAPPPSR (ends and bridges not checked) [Compound 155], > 1e-06 M; that for [NMeY][Aib]EGTFISDYSI[dIva]LDRIAQQSFVNWLLAQRPSSGAPPPSR (not fully specified (N-terminus, C-terminus); ends and bridges not checked) [Compound 138], > 1e-06 M.
For the molecule [NMeY][Aib]EGTFISDYSIALDRIHQ[Aib]NFVNWLLAQRPSSGAPPPSR (not fully specified (N-terminus, C-terminus); ends and bridges not checked) [Compound 142], the Agonist activity (EC50, M) is > 1e-06 M.
Still for that read-out and setting: the result for Me-Y[Aib]EGTFISDYSIALDRIAQQNFVNW[Iva]LAQRPSSGAPPPSR (not fully specified (residue 1, C-terminus); ends and bridges not checked) [Compound 133] reads > 1e-06 M.
